Data published in US20240350544A1 (Takeda / Millennium, published 2024).

T1: human BCMA on BCMA overexpressing CHO cells (human, UniProt Q02223 1-184)
T1 construct: also called hBCMA CHO; Hu BCMA (FACS)
T1 chain: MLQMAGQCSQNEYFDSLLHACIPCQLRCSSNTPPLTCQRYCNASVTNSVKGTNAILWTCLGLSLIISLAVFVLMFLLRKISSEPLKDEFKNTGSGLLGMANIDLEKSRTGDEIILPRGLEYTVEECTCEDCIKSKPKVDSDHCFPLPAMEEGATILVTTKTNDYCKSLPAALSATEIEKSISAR

T2: hBCMA-mIgG2a (human; mouse, UniProt Q02223 1-54, limits assumed)
T2 construct: not shown: mouse IgG2a portion ('mIgG2a')
T2 sequence: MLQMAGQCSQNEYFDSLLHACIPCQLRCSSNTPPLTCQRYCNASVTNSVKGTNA

T3: hBCMA-HIS antigen (human, UniProt Q02223 1-54)
T3 construct: It may be the same protein as Bio-huBCMA-His without, or with, biotin; also called human BCMA-6His; not shown: His tag
T3 sequence: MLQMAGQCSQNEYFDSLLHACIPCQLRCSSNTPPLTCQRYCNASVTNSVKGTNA

T4: human BCMA protein (Octet; construct not stated) (human, UniProt Q02223 1-54, limits assumed)
T4 sequence: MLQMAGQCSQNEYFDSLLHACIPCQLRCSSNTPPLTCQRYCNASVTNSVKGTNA

B1: anti-BCMA scFv clone from phage display, first row of Table 3 (VH …..., VL with LCDR3 …) (scFv, V domains shown)
VH: QITLRESGGDVVQPGRSLRLSCAASGFTFSSYAIHWVRQAPGKGLEWVAVTWHDGSNKYYAESVMGRFTISRDNSKNTLYLHMNSLRAEDTGVYYCARAKFGEPQYFQHWGQGTLVTVSS
VL: DIVMTQSPSFLSASVGDRVTITCRASQGISSYLAWYQQKPGKAPKLLIYAASTLQSGVPSRFSGSGSGTEFTLTISSLQPEDFATYYCQQLNSYPWTFGQGTKVDIK
B2: anti-BCMA scFv clone from phage display, third row of Table 3 (VH …..., VL with LCDR3 …) (scFv, V domains shown)
VH: EVQLVESGGDVVQPGRSLRLSCAASGFTFSSYAIHWVRQAPGKGLEWVAVTWHDGSNKYYAESVMGRFTISRDNSKNTLYLHMNSLRAEDTGVYYCARAKFGEPQYFQHWGQGTTVTVSS
VL: DIVMTQSPSFLSASVGDRVTITCRASQGISSYLAWYQQKPGKAPKLLIYAASTLQSGVPSRFSGSGSGTEFTLTISSLQPEDFATYYCQQLNSYPFTFGPGTKVDIK
B3: Ab 2, lead anti-BCMA clone of Table 4 (antibody, V domains shown)
VH: QITLRESGGDVVQPGRSLRLSCAASGFTFSSYAIHWVRQAPGKGLEWVAVTWHDGSNKYYAESVMGRFTISRDNSKNTLYLHMNSLRAEDTGVYYCARAKFGEPQYFQHWGQGTLVTVSS
VL: DIVMTQSPSFLSASVGDRVTITCRASQGINNYLAWYQQKPGIAPKLLIYAASTLQSGVPSRFGGSGSGTEFTLTISSLQPEDFATYYCQQLKSYPFTFGPGTKVEIK
B4: anti-BCMA scFv clone from phage display, second row of Table 3 (VH …..., VL with LCDR3 …) (scFv, V domains shown)
VH: QITLRESGGDVVQPGRSLRLSCAASGFTFSSYAIHWVRQAPGKGLEWVAVTWHDGSNKYYAESVMGRFTISRDNSKNTLYLHMNSLRAEDTGVYYCARAKFGEPQYFQHWGQGTLVTVSS
VL: DIVMTQSPSFLSASVGDRVTITCRASQGINNYLAWYQQKPGIAPKLLIYAASTLQSGVPSRFGGSGSGTEFTLTISSLQPEDFATYYCQQLKSYPFTFGPGTKVEIK
B5: anti-BCMA scFv clone from phage display, first row of Table 3 (VH QITLRESGG..., VL with LCDR3 QQLNSYPWT) (scFv, V domains shown)
VH: QITLRESGGDVVQPGRSLRLSCAASGFTFSSYAIHWVRQAPGKGLEWVAVTWHDGSNKYYAESVMGRFTISRDNSKNTLYLHMNSLRAEDTGVYYCARAKFGEPQYFQHWGQGTLVTVSS
VL: DIVMTQSPSFLSASVGDRVTITCRASQGISSYLAWYQQKPGKAPKLLIYAASTLQSGVPSRFSGSGSGTEFTLTISSLQPEDFATYYCQQLNSYPWTFGQGTKVDIK
notes: Tested as scFv in periplasmic extract; also called Ab 1
B6: Ab 3, lead anti-BCMA clone of Table 4 (antibody, V domains shown)
VH: EVQLVESGGDVVQPGRSLRLSCAASGFTFSSYAIHWVRQAPGKGLEWVAVTWHDGSNKYYAESVMGRFTISRDNSKNTLYLHMNSLRAEDTGVYYCARAKFGEPQYFQHWGQGTTVTVSS
VL: DIVMTQSPSFLSASVGDRVTITCRASQGISSYLAWYQQKPGKAPKLLIYAASTLQSGVPSRFSGSGSGTEFTLTISSLQPEDFATYYCQQLNSYPFTFGPGTKVDIK

Legend:
[1] = target: Bio-cyBCMA-His (biotinylated cynomolgus BCMA with His tag) (cynomolgus); test: ELISA, scFv periplasmic extract on biotinylated cynomolgus BCMA-His
Chain of Bio-cyBCMA-His (biotinylated cynomolgus BCMA with His tag) (cynomolgus) (chain, as listed by the source): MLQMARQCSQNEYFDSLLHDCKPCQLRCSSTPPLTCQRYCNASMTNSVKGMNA

[2] = target: T1, human BCMA on BCMA overexpressing CHO …; test: flow cytometry on human BCMA overexpressing CHO cells
Method: Anti-BCMA clones were tested for on-cell binding by FACS using BCMA overexpressing CHO cells. […] These samples were washed appropriately and assessed on the Attune NxT Flow Cytometer (Thermo Fisher Scientific). FACS analysis was performed in FlowJo.

hBCMA-mIgG2a = target: T2, hBCMA-mIgG2a; test: Octet (BLI), hBCMA-mIgG2a captured on sensor tips
hBCMA-HIS antigen = target: T3, hBCMA-HIS antigen; test: Octet (BLI), hBCMA-HIS antigen captured on sensor tips
[3] = target: T4, human BCMA protein (Octet; construct …); test: Octet (BLI), scFv periplasmic extract, human BCMA captured on sensor tips
Method: An Octet binding assay was performed using human BCMA protein with a panel of anti-BCMA clones for binding characterization. Human BCMA was first captured onto the appropriately coated Octet sensor tips, then positioned into wells containing the anti-BCMA clones for association. After the sensor tip was placed in the dissociation wells, the response of the interaction was calculated for each anti-BCMA clone and corresponding human BCMA protein.

Binder | PE Elisa Bio-cyBCMA-His [1] | EC50 [2] [µg/mL] | Kd (hBCMA-mIgG2a) [nM] | koff (hBCMA-mIgG2a) [s⁻¹] | kon (hBCMA-mIgG2a) [M⁻¹ s⁻¹] | Kd (hBCMA-HIS antigen) [nM] | koff (hBCMA-HIS antigen) [s⁻¹] | kon (hBCMA-HIS antigen) [M⁻¹ s⁻¹] | also measured
B1 | 0.147 |  |  |  |  |  |  |  | 
B2 | 0.126 |  |  |  |  |  |  |  | 
B3 |  | 0.144 | 0.0117 | 4.44e-06 | 379000 | 0.0788 | 3.77e-05 | 479000 | 
B4 | 0.122 |  |  |  |  |  |  |  | 
B5 |  |  |  |  |  |  |  |  | koff [3]: 0.000369 s⁻¹
B6 |  | 0.117 | < 0.001 | < 1e-07 | 308000 | 0.0608 | 1.33e-05 | 219000 | 
